Values quoted from earlier work as cited in patent US12268667B2, “JAK1 pathway inhibitors for the treatment of prurigo nodularis” (Incyte Corporation, priority 2021, dated 2025).

Assays:
IL-31 = details: cited from earlier work
PN lesional skin = details: PN skin cultured with nemolizumab; cited from earlier work

B1: nemolizumab (antibody, chains of the INN, looked up)
heavy: QVQLVQSGAEVKKPGASVKVSCKASGYTFTGYIMNWVRQAPGQGLEWMGLINPYNGGTDYNPQFQDRVTITADKSTSTAYMELSSLRSEDTAVYYCARDGYDDGPYTLETWGQGTLVTVSSASTKGPSVFPLAPSSKSTSGGTAALGCLVKDYFPEPVTVSWNSGALTSGVHTFPAVLQSSGLYSLSSVVTVPSSNFGTQTYTCNVDHKPSNTKVDKTVERKSCVECPPCPAPPVAGPSVFLFPPKPKDTLMISRTPEVTCVVVDVSQEDPEVQFNWYVDGVEVHNAKTKPREEQFNSTFRVVSVLTVVHQDWLNGKEYKCKVSNKGLPAPIEKTISKTKGQPREPQVYTLPPSQEEMTKNQVSLTCLVKGFYPSDIAVEWESNGQPENNYKTTPPMLDSDGSFFLYSKLTVDKSRWQEGNVFSCSVMHEALHNHYTQKSLSLSP
light: DIQMTQSPSSLSASVGDRVTITCQASEDIYSFVAWYQQKPGKAPKLLIYNAQTEAQGVPSRFSGSGSGTDFTLTISSLQPEDFATYYCQHHYDSPLTFGGGTKVEIKRTVAAPSVFIFPPSDEQLKSGTASVVCLLNNFYPREAKVQWKVDNALQSGNSQESVTEQDSKDSTYSLSSTLTLSKADYEKHKVYACEVTHQGLSSPVTKSFNRGEC
For B1, which “effect on pruritus and skin lesions in PN patients” value (IL-31) is on record?
Its value is “improvement in pruritus and skin lesions”.

What about the “IL-17 levels in lesional skin” value (PN lesional skin) of the same molecule?
Its value is “reduction in IL-17 levels”.
